The values that follow come from paper PMC9300677.

Experiment [1] deals with microtubules of Tuba4aΔpolyGlu (p/p) mice, containing mutant Tuba4a without C-terminal polyglutamylation (mouse (endogenous in hippocampal neurons and hippocampus)) (UniProt P68368). Briefly: soluble-tubulin extraction assay (TX-100 extraction); DIV15 hippocampal neurons extracted 90 s at 37 °C in MT-extraction buffer (80 mM PIPES pH 6.9, 0.3% Triton X-100, 150 mM NaCl); soluble and in-soluble (polymerized microtubules with associated MAPs) fractions compared by western blot.
Chain of UniProt P68368 (P68368 whole entry, looked up, stated change not applied): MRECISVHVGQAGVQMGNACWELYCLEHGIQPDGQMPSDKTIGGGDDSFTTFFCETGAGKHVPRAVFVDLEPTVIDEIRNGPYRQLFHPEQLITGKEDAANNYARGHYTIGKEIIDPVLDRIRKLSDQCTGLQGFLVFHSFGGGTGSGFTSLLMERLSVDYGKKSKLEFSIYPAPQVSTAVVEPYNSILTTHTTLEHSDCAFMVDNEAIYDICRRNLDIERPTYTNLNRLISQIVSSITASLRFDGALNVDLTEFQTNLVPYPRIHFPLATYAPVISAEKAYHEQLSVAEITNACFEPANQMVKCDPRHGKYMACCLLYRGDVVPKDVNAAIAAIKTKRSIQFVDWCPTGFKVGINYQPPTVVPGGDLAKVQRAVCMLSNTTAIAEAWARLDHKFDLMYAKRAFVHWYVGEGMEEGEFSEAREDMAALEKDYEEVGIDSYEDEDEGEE

Experiment [2] deals with GSK3α (UniProt Q2NL51). Briefly: microtubule pelleting assay, western blot quantification. Particulars: re-polymerization of hippocampal tubulin from adult mice; n = 3 mice per genotype; parent: est. 0.30; read off a plot.
Chain of UniProt Q2NL51 (Q2NL51 whole entry, looked up): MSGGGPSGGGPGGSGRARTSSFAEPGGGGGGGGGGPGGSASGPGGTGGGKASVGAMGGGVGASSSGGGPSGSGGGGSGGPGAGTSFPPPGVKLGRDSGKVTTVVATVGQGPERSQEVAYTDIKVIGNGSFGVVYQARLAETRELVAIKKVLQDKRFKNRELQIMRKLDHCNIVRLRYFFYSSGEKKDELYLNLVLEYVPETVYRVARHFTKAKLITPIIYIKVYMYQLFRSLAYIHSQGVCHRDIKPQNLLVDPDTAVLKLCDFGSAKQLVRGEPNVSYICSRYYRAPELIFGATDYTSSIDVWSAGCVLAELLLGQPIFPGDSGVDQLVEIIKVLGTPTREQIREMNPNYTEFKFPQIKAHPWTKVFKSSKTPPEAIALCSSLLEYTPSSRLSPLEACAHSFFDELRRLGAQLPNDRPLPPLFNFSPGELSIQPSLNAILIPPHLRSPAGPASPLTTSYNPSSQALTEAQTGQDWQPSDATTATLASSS
In experiment [3] the target is GSK3β (UniProt Q9WV60). The experiment is described as above. Particulars: re-polymerization of hippocampal tubulin from adult mice; n = 3 mice per genotype; parent: est. 0.40; read off a plot.
Chain of UniProt Q9WV60 (Q9WV60 whole entry, looked up): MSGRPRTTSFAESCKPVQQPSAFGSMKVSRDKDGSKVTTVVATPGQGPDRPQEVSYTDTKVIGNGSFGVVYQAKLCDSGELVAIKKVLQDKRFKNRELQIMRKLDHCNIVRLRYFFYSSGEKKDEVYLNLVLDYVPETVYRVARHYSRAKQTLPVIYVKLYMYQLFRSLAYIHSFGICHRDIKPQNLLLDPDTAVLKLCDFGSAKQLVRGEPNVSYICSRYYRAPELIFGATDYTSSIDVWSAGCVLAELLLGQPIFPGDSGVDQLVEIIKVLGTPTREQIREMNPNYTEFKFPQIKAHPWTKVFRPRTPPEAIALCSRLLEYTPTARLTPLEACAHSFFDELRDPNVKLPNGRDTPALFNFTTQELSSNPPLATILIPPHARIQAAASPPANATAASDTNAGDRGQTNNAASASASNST
Experiment [4] addresses GSK3β (UniProt Q9WV60). Briefly: soluble-tubulin extraction assay, western blot quantification. The following applies: DIV15 neurons; n = 4 independent cultures per genotype; parent: est. 1.5; read off a plot. (In general: A western blot detects proteins with antibodies after separation by electrophoresis.)

On to “MAP2a/b (from UniProt P20357 1-1828) (natural protein)”, for which, in experiment [1], the reduction of co-occurrence with microtubules in the in-soluble fraction against wild type (+/+) was > 50%.

For the substance “Tau (mouse, endogenous) (from UniProt P10637 1-733) (natural protein)”, the reduction of co-occurrence with microtubules in the in-soluble fraction against wild type (+/+) in experiment [1] is > 50%.

With “microtubules of wild-type (+/+) mice, containing polyglutamylated Tuba4a (from UniProt P68368;Q9ERD7) Tuba4aΔpolyGlu (p/p)”, the other: pellet / supernatant ratio in experiment [2] and in experiment [3] was 0.15 each time. For the same substance, in experiment [4], the other: in-soluble / soluble ratio came out at 0.73.
